The Human Domainome abundance scans (Beltran et al. 2025)
± gives the uncertainty stated by the source.

B1: POU domain, class 3, transcription factor 1, residues 247 to 324; numbered along this chain, Q03052 (parent)
chain: EDAPSSDDLEQFAKQFKQRRIKLGFTQADVGLALGTLYGNVFSQTTICRFEALQLSFKNMCKLKPLLNKWLEETDSSS

Variants of: B1
Test: abundance fitness (aPCA) (normalised: wild type 0, dead -1); higher = more abundant; growth selection in yeast, the domain comes from the species named
Conditions: Homo sapiens
Work on G31M yielded an abundance fitness of -0.494 ± 0.18. In the case of F50L, the abundance fitness is reported as -0.718 ± 0.09. Work on R20T yielded an abundance fitness of -0.815 ± 0.21. Work on Y38K yielded an abundance fitness of -0.153 ± 0.092. Variant L66I has an abundance fitness of 0.035 ± 0.1. For T36V, the abundance fitness was -0.36 ± 0.071. In the case of G31S, the abundance fitness is reported as 0.04 ± 0.069. Variant L53A has an abundance fitness of 0.042 ± 0.054. Q27L gave an abundance fitness of -0.356 ± 0.088. Variant T74V has an abundance fitness of 0.042 ± 0.064. In the case of Q11N, the abundance fitness is reported as 0.001 ± 0.15. With G39V the abundance fitness was -0.846 ± 0.11. Variant Q11G has an abundance fitness of -0.272 ± 0.055. Work on K14S yielded an abundance fitness of -0.492 ± 0.1. A33N showed an abundance fitness of -0.075 ± 0.18. D29V gave an abundance fitness of -0.679 ± 0.12. In the case of S78W, the abundance fitness is reported as -0.189 ± 0.14. E51V showed an abundance fitness of -0.525 ± 0.13. With D2V the abundance fitness was 0.171 ± 0.059. Variant Q44Y has an abundance fitness of -0.266 ± 0.15. In the case of F12L, the abundance fitness is reported as -0.547 ± 0.13. K22Y showed an abundance fitness of 0.071 ± 0.2. K62T showed an abundance fitness of -0.058 ± 0.083. E51L showed an abundance fitness of -1.08 ± 0.19. S76Q gave an abundance fitness of 0.106 ± 0.11. Variant T26V has an abundance fitness of -0.724 ± 0.14. Work on N40W yielded an abundance fitness of -0.244 ± 0.059. S77P gave an abundance fitness of 0.071 ± 0.069. In the case of T26P, the abundance fitness is reported as -0.919 ± 0.3. Work on A28H yielded an abundance fitness of -0.24 ± 0.21. For D7V, the abundance fitness was -0.181 ± 0.071. In the case of A52C, the abundance fitness is reported as -0.362 ± 0.26. For D2C, the abundance fitness was 0.081 ± 0.13. Q54H showed an abundance fitness of -0.035 ± 0.14. With S78K the abundance fitness was 0.164 ± 0.13. N40F showed an abundance fitness of -0.167 ± 0.16. With S5R the abundance fitness was 0.164 ± 0.046. With E72C the abundance fitness was -0.247 ± 0.091. Work on N40I yielded an abundance fitness of -0.117 ± 0.17. D7Q showed an abundance fitness of -0.138 ± 0.15. In the case of T45F, the abundance fitness is reported as -0.016 ± 0.19. L23C gave an abundance fitness of -0.629 ± 0.16. Work on S77E yielded an abundance fitness of 0.002 ± 0.054. Variant C61S has an abundance fitness of -0.212 ± 0.058. In the case of E73T, the abundance fitness is reported as -0.034 ± 0.073. A52H showed an abundance fitness of -0.141 ± 0.17. L53K gave an abundance fitness of -0.135 ± 0.092. V30F gave an abundance fitness of -0.485 ± 0.23. E1N gave an abundance fitness of -0.013 ± 0.16. N59K showed an abundance fitness of 0.042 ± 0.074. For Q44A, the abundance fitness was 0.119 ± 0.047. Variant D2K has an abundance fitness of 0.452 ± 0.087. A33H gave an abundance fitness of -0.332 ± 0.28. In the case of F57A, the abundance fitness is reported as -0.142 ± 0.064. Variant P65L has an abundance fitness of -0.284 ± 0.066. D7P showed an abundance fitness of -0.642 ± 0.23. Work on T26K yielded an abundance fitness of -0.746 ± 0.26. For E72T, the abundance fitness was -0.148 ± 0.071. For E51Y, the abundance fitness was -0.899 ± 0.19. With S77K the abundance fitness was 0.096 ± 0.063. N59S gave an abundance fitness of -0.084 ± 0.059. Variant D29T has an abundance fitness of -0.512 ± 0.14. F12G showed an abundance fitness of -1.11 ± 0.23. Work on N59D yielded an abundance fitness of 0.193 ± 0.063. F50Q gave an abundance fitness of -0.498 ± 0.18. Q18W gave an abundance fitness of -0.245 ± 0.1. Work on A28Y yielded an abundance fitness of -0.213 ± 0.16. In the case of G31R, the abundance fitness is reported as -0.46 ± 0.073. F12P showed an abundance fitness of -0.492 ± 0.2. Q11V gave an abundance fitness of -0.032 ± 0.052. For W70T, the abundance fitness was -0.595 ± 0.17. L66E gave an abundance fitness of -0.936 ± 0.14. In the case of F16A, the abundance fitness is reported as -0.779 ± 0.15. T36L showed an abundance fitness of -0.154 ± 0.063. Work on L63P yielded an abundance fitness of -0.769 ± 0.17. Y38H gave an abundance fitness of -0.014 ± 0.17. I47W showed an abundance fitness of -0.408 ± 0.093. For P65Q, the abundance fitness was -0.451 ± 0.14. Work on R20V yielded an abundance fitness of -0.636 ± 0.11. With D29K the abundance fitness was -0.057 ± 0.095. Variant Q15V has an abundance fitness of -0.078 ± 0.06. With L53N the abundance fitness was 0.319 ± 0.17. For F25G, the abundance fitness was -0.859 ± 0.15. G35D gave an abundance fitness of -0.571 ± 0.22. P4E gave an abundance fitness of -0.043 ± 0.079. Variant G39A has an abundance fitness of -0.365 ± 0.076. C61Y gave an abundance fitness of -0.164 ± 0.16. Work on T74G yielded an abundance fitness of -0.418 ± 0.066. In the case of L71I, the abundance fitness is reported as -0.019 ± 0.11. For S78M, the abundance fitness was -0.256 ± 0.23. Q44G showed an abundance fitness of 0.03 ± 0.038. For K17I, the abundance fitness was 0.048 ± 0.2. For A13D, the abundance fitness was -1.07 ± 0.45. Variant K62H has an abundance fitness of 0.03 ± 0.12. D2P gave an abundance fitness of 0.252 ± 0.11. L9M showed an abundance fitness of -0.084 ± 0.11. K22C showed an abundance fitness of -0.347 ± 0.13. In the case of G24P, the abundance fitness is reported as -0.73 ± 0.21. For Q44I, the abundance fitness was -0.472 ± 0.14. Variant L67V has an abundance fitness of -0.563 ± 0.078. Variant K22D has an abundance fitness of 0.038 ± 0.085. L53D gave an abundance fitness of -0.646 ± 0.25. Work on S76R yielded an abundance fitness of 0.058 ± 0.054. With V41K the abundance fitness was 0.141 ± 0.069. F42N gave an abundance fitness of -0.597 ± 0.22. For D7G, the abundance fitness was -0.045 ± 0.057. Q44M showed an abundance fitness of -0.262 ± 0.085. L53E gave an abundance fitness of -0.494 ± 0.12. F25R gave an abundance fitness of -0.342 ± 0.072. With K22G the abundance fitness was -0.349 ± 0.061. Work on K69N yielded an abundance fitness of -0.249 ± 0.12. Variant E1K has an abundance fitness of 0.066 ± 0.16. For S6N, the abundance fitness was 0.178 ± 0.11. For E73N, the abundance fitness was -0.154 ± 0.12. Variant Q27E has an abundance fitness of 0.03 ± 0.079. Variant Q11R has an abundance fitness of -0.149 ± 0.054. In the case of T36F, the abundance fitness is reported as -0.659 ± 0.35. Work on Q27V yielded an abundance fitness of -0.171 ± 0.074. G31V gave an abundance fitness of -0.262 ± 0.07. In the case of T45Q, the abundance fitness is reported as 0.167 ± 0.075. G35V gave an abundance fitness of -0.641 ± 0.099. Work on Q27D yielded an abundance fitness of -0.836 ± 0.49. Work on F16D yielded an abundance fitness of -0.83 ± 0.28. In the case of S6R, the abundance fitness is reported as 0.365 ± 0.047. Work on S78A yielded an abundance fitness of -0.023 ± 0.096. In the case of K14H, the abundance fitness is reported as 0.468 ± 0.16. In the case of T46L, the abundance fitness is reported as -0.279 ± 0.084. A13S showed an abundance fitness of -0.53 ± 0.1. Variant G35P has an abundance fitness of -1.13 ± 0.31. Work on V41P yielded an abundance fitness of 0.087 ± 0.07. G24L showed an abundance fitness of -0.726 ± 0.12. Work on N59Q yielded an abundance fitness of -0.025 ± 0.075. A33Y gave an abundance fitness of -0.221 ± 0.17. Work on D8R yielded an abundance fitness of -0.179 ± 0.07. For K58S, the abundance fitness was -0.152 ± 0.084. Work on Q15T yielded an abundance fitness of -0.112 ± 0.1. T26A gave an abundance fitness of -0.497 ± 0.097. In the case of S43V, the abundance fitness is reported as -0.835 ± 0.11. L53H gave an abundance fitness of -0.111 ± 0.14. Work on L37M yielded an abundance fitness of 0.097 ± 0.072. In the case of T74N, the abundance fitness is reported as 0.278 ± 0.22. G39H showed an abundance fitness of 0.144 ± 0.16. T74H gave an abundance fitness of 0.231 ± 0.13. For C48L, the abundance fitness was -0.04 ± 0.057. K22T showed an abundance fitness of -0.106 ± 0.084. F25S showed an abundance fitness of -0.505 ± 0.12. In the case of Q15D, the abundance fitness is reported as 0 ± 0.12. Variant Y38V has an abundance fitness of -0.031 ± 0.062. In the case of L66S, the abundance fitness is reported as -0.767 ± 0.1. With S56H the abundance fitness was -0.724 ± 0.26. K62F showed an abundance fitness of -0.278 ± 0.15. S43M showed an abundance fitness of -0.63 ± 0.13. In the case of T45I, the abundance fitness is reported as -0.557 ± 0.32. Work on Q18A yielded an abundance fitness of 0.074 ± 0.059. In the case of C61F, the abundance fitness is reported as -0.538 ± 0.14. R19N gave an abundance fitness of -0.071 ± 0.2. Work on F25P yielded an abundance fitness of -0.965 ± 0.25. For C48S, the abundance fitness was 0.144 ± 0.051. For Q18N, the abundance fitness was -0.276 ± 0.17. L32K gave an abundance fitness of 0.086 ± 0.074. Variant R19K has an abundance fitness of 0.259 ± 0.11. For Q15K, the abundance fitness was -0.118 ± 0.085. With G31P the abundance fitness was -0.983 ± 0.29. With R20M the abundance fitness was -0.915 ± 0.27. In the case of I47G, the abundance fitness is reported as -0.751 ± 0.091. For K17M, the abundance fitness was -0.269 ± 0.12. In the case of D2H, the abundance fitness is reported as 0.29 ± 0.11.
